Where a chain is given by its changes, count along the chain named.
T1: DcR1 (UniProt O14798 26-221, limits assumed)
T1 sequence (looked up): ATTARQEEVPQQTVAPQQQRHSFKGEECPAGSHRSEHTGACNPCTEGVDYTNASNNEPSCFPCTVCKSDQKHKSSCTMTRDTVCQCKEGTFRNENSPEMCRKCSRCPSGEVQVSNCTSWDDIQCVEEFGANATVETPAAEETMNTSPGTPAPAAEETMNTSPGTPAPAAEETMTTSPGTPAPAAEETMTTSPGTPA

T2: DcR2 (UniProt Q9UBN6 56-211, limits assumed)
T2 sequence (looked up): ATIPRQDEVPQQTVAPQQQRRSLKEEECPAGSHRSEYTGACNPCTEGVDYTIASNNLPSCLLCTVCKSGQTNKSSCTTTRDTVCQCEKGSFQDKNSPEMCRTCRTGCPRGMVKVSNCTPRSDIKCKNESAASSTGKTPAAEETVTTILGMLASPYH

B1: KD437 (designed binder)
chain: CAKSRGYKYDGNRYKTNKGDKCQAWTKTKPHDHGHRHGHGDRFRNRKNYCRNPDHESKPWCFTYRDRYRHELCNRPRC
B2: KD537 (designed binder)
chain: CTRTKGAKYDGYKHRTHEGNKCQSWNKARPHLHGDRLGNKYEHKARKNYCRNPDNRAEPWCFTDKNQNQHELCYGPRC
B3: KD505 (designed binder)
chain: CPEDQGDEYDGHEHKTHRGNRCQSWYRPKPHNHGHRIKDRYKYKVKKNYCRNPDTQARPWCFTNRHRDEHELCDQPRC
notes: also called KDS05
B4: KD415L567 (designed binder)
chain: CMHCSGENYDGKISKTMSGLECQAWDSQSPHAHGYIPSKFPNKNLKKNYCRNPDPQDQPWCFTNRHQHKNELCNQPRC
B5: L56 (KD506) (designed binder)
chain: B4 chain with P55Y, Q56E, D57T, Q58G, H66Y, Q67R, H68N, N74D, Q75I
notes: also called KD506L56
B6: L5 (KD506) (designed binder)
chain: CMHCSGENYDGKISKTMSGLECQAWDSQSPHAHGYIPSKFPNKNLKKNYCRNPDYETGPWCFTTDPNKRWELCDIPRC
notes: also called KD506L5
B7: L5 (KD415) (designed binder)
chain: B6 chain with Y55P, E56Q, T57D, G58Q
notes: also called KD415L5
B8: L56 (KD415) (designed binder)
chain: B4 chain with N74D, Q75I
notes: also called KD415L56
B9: KD506L567 (designed binder)
chain: B4 chain with P55Y, Q56E, D57T, Q58G, H66Y, Q67R, H68N, N74H, Q75E
B10: L1234 (KD415) (designed binder)
chain: CTRSKGDEYDGHKHKTNRGLRCQHWPGTKPHFHGDKIKDRHGFRLKKNYCRNPDRELRPWCFTTDPNKRWELCDIPRC
notes: also called KD415L1234
B11: KD542 (designed binder)
chain: CNRAGGHKYDGDRYRTHRGDGCQNWAKTKPHHHGIGHRDKIRDKYRKNYCRNPDAKNGPWCFTNRNGDKNELCIQPRC
notes: Soluble monomer from Pichia pastoris; not shown: C-terminal myc tag-6xHis tag of pPICZaA
B12: KD404 (designed binder)
chain: CSRDKGYRYDGDGNKTLKGHKCQHWTKSKPHDHGYRHKLGNEDKFKKNYCRNPDTRAGPWCFTDQYRDRDELCYQPRC
notes: Soluble monomer from Pichia pastoris; also called anti-DR4 Kringle domain variant KD404; not shown: C-terminal myc tag-6xHis tag of pPICZaA
B13: KD503 (designed binder)
chain: CTQTKGHRYDGYKYETNWGHQCQAWTKHKPHLHGNGHRNRHKVGHEKNYCRNPDHRDGPWCFTNQYENENELCHQPRC
B14: KD459 (designed binder)
chain: CSRYRGHKYDGYKHRTYKGYQCQSWTKDKPHHHGIRHRNKIRDRFGKNYCRNPDTQNQPWCFTYGDEYRYELCNKPRC
B15: KD408 (designed binder)
chain: CDRHKGPKYDGFRDRTHKGHKCQYWDKPRPHHHGHKHGDEFRNRLGKNYCRNPDSQAEPWCFTHKDKYKYELCYQPRC
B16: L1234 (KD506) (designed binder)
chain: CPEDRGHEYDGDGDKTNRGHGCQYWDQNKPHHHGHRDKDKFKHRIKKNYCRNPDRELRPWCFTTDPNKRWELCDIPRC
notes: also called KD506L1234
B17: KD555 (designed binder)
chain: CDGAQGNGYDGNKHKTHRGNKCQAWPKHGPHYHGNGDQDGHRNKHKKNYCRNPDTRSRPWCFTDQNGHKDELCHGPRC
notes: also called KDS55
B18: KD445 (designed binder)
chain: CHETKGHKYDGHRLRTNKGDRCQPWTKDKPHHHGFRDQYQVRYKLKKNYCRNPDDQNKPWCFTDGNQHEHELCNGPRC
B19: KD421 (designed binder)
chain: CAGAEGNEYDGDKYKTHKGYRCQRWDKSRPHNHGNKDRHQHENKVGKNYCRNPDNEAEPWCFTDQHKHGNELCDRPRC
B20: KDT08 (designed binder)
chain: CPKSGGNGYDGYKHGTNEGLQCQNWDRAKPHDHGIEVQNEYGDRHEKNNCRNPDDKTRPWCFTHKDRYRNELCYQPRC
notes: Soluble monomer from Pichia pastoris; also called KRT08; not shown: C-terminal myc tag-6xHis tag of pPICZaA
B21: KD502 (designed binder)
chain: CAEDKGARYDGYQYRTHKGIKCQPWYQHEPHYHGHKDKIRHKNRNKKNYCRNPDAGDRPWCFTHRDKYEHELCNRPRC
B22: KD509 (designed binder)
single chain: CAQSKGYRYDGDKDKTNKGHKCQDWAQNKPHVHGHRHEDRHQVKSRKNYCRNPDARARPWCFTNQVRYRNELCYKPRC
B23: KD409 (designed binder)
chain: CAKDKGDKYDGHKHKTNRGDKCQTWAKNRPHFHGHRFEVGHEHKIRKNYCRNPDDQDKPWCFTHGYRNQDELCDGPRC
B24: KD456 (designed binder)
chain: CDKNRGNGYDGNEIQTDGGVQCQHWTKTKPHHHGLKLQHEHRVKHEKNYCRNPDARTQPWCFTDKHQHKDELCIEPRC

Legend:
DcR1 [1] = molecular target: T1, DcR1; assay: ELISA, coated target, single binder concentration not given, A405
Protocol: (§1) In order to measure the affinity and cross reactivity of the anti-DR4, -DR5 and -TNFα protein scaffold variants based on the Kringle domain structure to the target molecules, an enzyme-linked immunosorbent assay (ELISA) was performed. The target molecules DR4, DR5, TNFα and DcR1, DcR2 were attached to a 96 well EIA/RIA plate (COSTARCorning In., USA) by its reaction at 37° C. for 1 hour, and washed three times with 0.1% PBST (0.1% Tween20, pH 7.4, 137 mM NaCl, 10 mM Phosphate, 2.7 mM KCl, SIGMA-ALDRICH Co., USA) for 10 minutes. The target molecules were attached for 1 hour to a 96 well EIA/RIA plate in 1% PBSB (1% BSA, pH 7.4, 137 mM NaCl, 10 mM Phosphate, 2.7 mM KCl, SIGMA-ALDRICH Co., USA), and then washed three times with 0.1% PBST (0.1% Tween 20, pH 7.4, 137 mM NaCl, 10 mM Phosphate, 2.7 mM KCl, SIGMA-ALDRICH Co., USA) for 10 minutes. Then, the anti-DR4, -DR5 and -TNFα Kringle domain variants were bound, and washed three times with 0.1% PBST for 10 minutes. The anti-DR4, -DR5 and -TNFα Kringle domain variants were primarily bound to mouse-derived anti-c-myc 9e10 mAb (Ig Therapy, Korea), and secondarily bound to alkaline phosphatase (AP)-conjugated anti-mouse mAb (Sigma). Each of the Kringle domain variants was reacted with […] (pNPP, Sigma-aldrich Co., USA) and quantified at an absorbance of 405 nm.

DcR2 [2] = molecular target: T2, DcR2; assay: as above
Protocol: as §1

[3] = molecular target: T3, human-derived cell death receptor 4, extracellular domain (amino acid residues 1-216), 6xHis tag (human, UniProt O00220 24-239); assay: as above
T3 construct: extracellular domain; Expressed in E. coli; biotinylated for sorting and flow cytometry; residues 1-216; also called DR4; TRAIL-receptor 1
T3 sequence (O00220 other isoform, or with tags, fused parts or gaps): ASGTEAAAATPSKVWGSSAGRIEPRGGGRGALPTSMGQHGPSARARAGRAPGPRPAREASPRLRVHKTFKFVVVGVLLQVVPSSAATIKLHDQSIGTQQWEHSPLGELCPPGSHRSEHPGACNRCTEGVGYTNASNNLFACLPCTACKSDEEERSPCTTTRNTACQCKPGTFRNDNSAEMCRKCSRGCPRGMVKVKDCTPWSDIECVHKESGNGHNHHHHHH
Protocol: as §1

DcR1 [4] = molecular target: T1, DcR1; assay: yeast display, flow cytometry MFI [panel KD415]
DcR2 [5] = molecular target: T2, DcR2; assay: yeast display, flow cytometry MFI [panel KD415]
DcR1 [6] = molecular target: T1, DcR1; assay: yeast display, flow cytometry MFI [panel KD506]
DcR2 [7] = molecular target: T2, DcR2; assay: yeast display, flow cytometry MFI [panel KD506]
[8] = molecular target: T3, human-derived cell death receptor 4, …; assay: yeast display, flow cytometry MFI [panel KD506]
[9] = molecular target: T4, human-derived cell death receptor 5, extracellular domain (amino acid residues 1-130), 6xHis tag (human, UniProt O14763 56-210); assay: ELISA, coated target, A405
T4 construct: extracellular domain; Expressed in E. coli; biotinylated for sorting and flow cytometry; also called DR5; TRAIL-receptor 2
T4 sequence (O14763 other isoform, or with tags, fused parts or gaps limits assumed, form in doubt): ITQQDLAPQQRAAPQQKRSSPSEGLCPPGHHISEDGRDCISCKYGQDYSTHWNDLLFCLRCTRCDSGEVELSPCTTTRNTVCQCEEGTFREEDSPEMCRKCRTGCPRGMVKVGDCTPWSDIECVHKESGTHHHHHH
Protocol: as §1

[10] = molecular target: T3, human-derived cell death receptor 4, …; assay: ELISA, coated target, A405
Protocol: as §1

| Binder | binding result (DcR1 [1]) | binding result (DcR2 [2]) | binding result [3] | other results |
| --- | --- | --- | --- | --- |
| B1 | no binding | no binding | binds | – |
| B2 | no binding | no binding | no binding | – |
| B3 | no binding | no binding | no binding | – |
| B4 | – | – | – | binding result (DcR1 [4]): no binding; binding result (DcR2 [5]): no binding |
| B5 | – | – | – | binding result (DcR1 [6]): no binding; binding result (DcR2 [7]): no binding; binding result [8]: no binding |
| B6 | – | – | – | binding result (DcR1 [6]): no binding; binding result (DcR2 [7]): no binding; binding result [8]: no binding |
| B7 | – | – | – | binding result (DcR1 [4]): no binding; binding result (DcR2 [5]): no binding |
| B8 | – | – | – | binding result (DcR1 [4]): no binding; binding result (DcR2 [5]): no binding |
| B9 | – | – | – | binding result (DcR1 [6]): no binding; binding result (DcR2 [7]): no binding; binding result [8]: no binding |
| B10 | – | – | – | binding result (DcR1 [4]): no binding; binding result (DcR2 [5]): no binding |
| B11 | – | – | binds | EC50 (read off the curve) [9]: ~5000 nM |
| B12 | – | no binding | – | EC50 (read off the curve) [10]: ~600 nM |
| B13 | no binding | no binding | no binding | EC50 (read off the curve) [9]: ~400 nM |
| B14 | – | – | – | EC50 (read off the curve) [10]: ~2000 nM |
| B15 | no binding | no binding | – | binding result [10]: binds |
| B16 | – | – | – | binding result (DcR1 [6]): no binding; binding result (DcR2 [7]): no binding; binding result [8]: no binding |
| B17 | no binding | no binding | no binding | – |
| B18 | no binding | no binding | binds | – |
| B19 | no binding | no binding | binds | – |
| B20 | – | – | no binding | – |
| B21 | no binding | no binding | no binding | EC50 (read off the curve) [9]: ~2000 nM |
| B22 | – | no binding | – | – |
| B23 | no binding | no binding | binds | – |
| B24 | no binding | no binding | – | EC50 (read off the curve) [10]: ~2000 nM |
